The assay has as its target T1, recombinant GST-tagged HSC70 (wild type) (human, UniProt P11142-1 1-646).
T1 construct: HSC70, human HSPA8 cDNA in pGEX-6P-1; also called GST-HSC70; GST-HSC70 WT; source: BL21-Rosetta E. coli, purified (Glutathione Sepharose 4 Fast Flow, eluted with reduced glutathione)
Nature of the assay: pull-down; Strep-tagged CSN held on Streptactin Sepharose, HSC70 at a 1:5 ratio, room temperature; with or without 5 µM NR peptide; Coomassie or immunoblot. Particulars: both partners purified.

This note sets out measurements from paper PMC11894141 (EMBO Reports, 2025).

T1 sequence (P11142 whole entry): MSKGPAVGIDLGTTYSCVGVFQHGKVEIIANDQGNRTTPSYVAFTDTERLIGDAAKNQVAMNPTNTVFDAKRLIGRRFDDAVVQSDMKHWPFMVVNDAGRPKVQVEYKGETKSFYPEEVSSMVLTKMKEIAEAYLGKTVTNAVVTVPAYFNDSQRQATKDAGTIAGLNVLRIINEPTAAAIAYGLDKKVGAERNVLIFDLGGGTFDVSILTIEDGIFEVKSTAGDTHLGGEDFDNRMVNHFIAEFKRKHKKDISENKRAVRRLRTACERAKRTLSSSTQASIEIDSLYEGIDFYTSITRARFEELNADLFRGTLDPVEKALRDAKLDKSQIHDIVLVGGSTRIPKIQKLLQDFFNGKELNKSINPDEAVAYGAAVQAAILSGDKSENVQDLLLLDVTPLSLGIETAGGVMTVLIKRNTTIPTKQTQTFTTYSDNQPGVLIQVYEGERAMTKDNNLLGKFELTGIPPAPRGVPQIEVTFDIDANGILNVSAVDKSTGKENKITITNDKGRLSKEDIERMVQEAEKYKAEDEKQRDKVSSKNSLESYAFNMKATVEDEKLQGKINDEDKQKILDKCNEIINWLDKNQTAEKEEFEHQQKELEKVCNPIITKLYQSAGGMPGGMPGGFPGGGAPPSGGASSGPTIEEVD

B1: NR peptide (an HSC70 model substrate) (peptide)
peptide: NRLLLTGC
notes: NR peptide, HSC70 model substrate (Xu et al, 2012)
Regarding B1, the binding result was “binds”.
